The values that follow come from patent publication US20210292393A1 (published 2021).

Where a chain is given by its changes, count along the chain named.

To fix the notation:
B1: antibody 523 (antibody, V domains shown)
VH: EVQLVESGGVSVQPGGSLRLSCAASGFSFNTYDMHWVRQGTGKGLEWVSGIGTAGDTYYSDSVKGRCTISRDNAKNSLHLLVKSVRAADTAVYYCARGVGGIIDYWGQGTLVTVSS
VL: NFVLSQPHSVSESPGKTVTISCTGNSGSIATKYVQWFQQRPGSAPTTVIYEDNQRPSGVPDRFSGSSDSSSNSASLTISGLKTEDEAHYYCQSYHNRRWVFGGGTKLTVL
B2: antibody 514 (antibody, V domains shown)
VH: EVQLVQSGAEVKKPGATVKISCKVSGYTFTDYYMHWVQQAPGKGLEWMGLVDPEDGETIYAEKFQGRVTITADTSTDTAYMELSSLRSEDTAVYYCATDCKYDILTGHYSAGYYYYGMDVWGQGTTVTVSS
VL: DIQMTQSPSSLSASVGDRVTITCRASQGISNYLAWFQQKPGKAPKSLIYAASSLQSGVPSKFSGSGSGTDFTLTISSLQPEDFATYYCQQYNSYPFTFGGGTKVEIK
B3: antibody 533 (antibody, V domains shown)
VH: GVQLVESGGVVVQPGGSLRLSCAASGFSFDDYTMHWVRQAPGKGLEWVSLVSWDGGTTYYTDSVKGRFTISRDNSKNSLYLQMNSLRTEDTALYFCAKDSGRIVPAATFDYWGQGTLVTVSS
VL: B2 VL with P8S, G28D, N92Y, S93T, F96L
B4: antibody 498 (antibody, V domains shown)
VH: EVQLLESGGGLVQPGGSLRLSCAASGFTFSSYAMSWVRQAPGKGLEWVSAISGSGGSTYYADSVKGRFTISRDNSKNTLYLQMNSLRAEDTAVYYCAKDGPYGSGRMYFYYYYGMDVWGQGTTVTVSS
VL: QSALTQPASVSGSPGQSITISCTGTSSDVGSYNLVSWYQQHPGKAPKLMIYEGSKRPSGVSNRFSGSKSGNTASLTISGLQAEDEADYYCCSYAGSSTSFVVFGGGTKLTVL
B5: antibody 505 (antibody, V domains shown)
VH: EVQLVESGGGLVKPGGSLRLSCAASGFTFSSYSMNWVRQAPGKGLEWVSSISSSSSYIYYADSVKGRITISRDNAKNSLYLQMNSLRAEDTAVYYCAREYPNFRAEWLLSPYGMDVWGQGTTVTVSS
VL: B4 VL with G53V, F100V, V101K, G105T, L109V
B6: antibody 516 (antibody, V domains shown)
VH: QVELQQWGAGLLKPSETLSLTCAVYGGSFSGYYWSWIRQPPGKGLEWIGEINHSGSTNYNPSLKSRVTISIDTSKNQFSLKLSSVTAADTAVYYCARGTTVTTFFAPHWYFDLWGRGTLVTVSS
VL: QSALTQPASVSGSPGQSITISCTGTSSDVGGYNYVSWYQQHPGKAPKLMIYDVSNRPSGVSNRFSGSKSGNTASLTISGLQAEDEADYYCSSYTSSSTPYVFGTGTKVTVL
B7: antibody 543 (antibody, V domains shown)
VH: EVQLVESGGGLVQPGRSLRLSCAASGFTFHDYAMHWVRQAPGKGLEWVSGISWNSGSIGYADSVKGRFTISRDNAKNSLYLQMNSLRAEDTALYYCAKDTFGSSSWYRGDSYYYYGMDVWGQGTTVTVSS
VL: QSALTQPASVSGSPGQSITISCTGTSSDVGGYNYVSWYQQHPGKAPKLMIYEVSNRPSGVSNRFSGSKSGNTASLTISGLQAEDEADYYCSSYTSSSTQRYVVFGGGTKLTVL
B8: antibody 507 (antibody, V domains shown)
VH: QVQLQESGPGLVKPSGTLSLTCAVSGGSISSSNWWSWVRQPPGKGLEWIGEIYHSGNTNYNPSLKSRVTISVDKSKNQFSLKLSSVTAADTAVYYCARREWLRLFDYWGQGTLVTVSS
VL: QSALTQPASVSGSPGQSITISCTGTSSDVGSYNLVSWYQQHPGKAPKLMIYEVSKRPSGVSNRFSGSKSGNTASLTISGLQAEDEADYYCCSYAGSSTYVFGTGTKVTVL
B9: antibody 510 (antibody, V domains shown)
VH: QVQLQESGPGLVKPSQTLSLTCTVSGGSISSGSYYWSWIRQPAGKGLEWIGRIYTSGSTNYNPSLKSRVTISVDTSKNQFSLKLSSVTAADTAVYYCAREGQWLYRFDYWGQGTLVTVSS
VL: B8 VL with S31N, N33D, M49V, E52G, S54T, G95T, S96G, S97D, Y99S
B10: antibody 541 (antibody, V domains shown)
VH: QVQLVQSGAEVKKPGASVKVSCKASGYTFTSYYVHWVRQAPGQSLEWMGVISPSTGSTTYAQNFQGRVTMTRDTSTTTVYMELSSLRSEDTAVYYCARDDYYDSTRYFDLWGRGTLVTVSS
VL: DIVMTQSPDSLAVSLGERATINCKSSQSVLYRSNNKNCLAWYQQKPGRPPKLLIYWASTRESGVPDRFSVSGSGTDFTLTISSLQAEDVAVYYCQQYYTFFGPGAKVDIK
B11: antibody 522 (antibody, V domains shown)
VH: EVQLVESGGGLVQPGGSLRLSCAASGFNFSSYSMNWVRQAPGKGLEWVSYISSSSSTIYYADSVKGRFTISRDNAKNSLYLQMNSLRDEDTAVYYCARGPEWDIVVVQAENWFDPWGQGTLVTVSS
VL: SYELTQPPSVSVSPGQTARITCSGDALPKQYVYWYQQKPGQAPVLVIYKDSERPSGIPERFSGSSSGTTVTLTISGVQAEDEADYYCQSADSSGTYRGVFGGGTKLTVL
B12: antibody 537 (antibody, V domains shown)
VH: QVQLQQWGAGLLKPSETLSLTCAVYGGSFSGYYWSWIRQPPGKGLEWIGEINHSGSTNYNPSLKSRVTISVDTSKNQFSLKLSSVTAADTAVYYCARGLYYDMGGGFDYWGQGTLVTVSS
VL: not shown
B13: antibody 320 (antibody, V domains shown)
VH: QVQLVQSGAEVKKPGASVKVSCKASGYTFTSYGISWVRQAPGQGLEWMGWISAYNGNTNYAQKLQGRVTMTTDTSTRTAYMELRSLRSDDTAVYYCARVGCYYDSSGYSCAENFQHWGQGTLVTVSS
VL: QSVLTQPPSVSGAPGQRVTISCTGSSSNIGAGYDVHWYQQLPGTAPKLLIYGNSNRPSGVPDRFSGSKSGTSASLAITGLQAEDEADYYCQSYDSSLSALFGGGTKLTVL
B14: antibody 316 (antibody, V domains shown)
VH: QVHLVESGGGVVQPGRSLRLSCAASGFTLTAYAMHWVRQAPGKRLEWVALISYDGSVKKYADSVKGRITVSGDTSTNTLHLQMNSLRADDTAVYYCVRGGVSGPNSFDLWGQGTMVTVSS
VL: DVVMTQSPLSLPVTLGQPASMSCRSSQSLEYSDGNTYVNWFHQRPGQSPRRLIYKVSYRDSGVPDRFSGSGSGTDFTLQISRVEAEDVGIYYCMQGTHWPVTFGQGTKVEIK
B15: antibody 323 (antibody, V domains shown)
VH: QVQLVQSGAEVKKPGASVKVSCKVSGYTLTELSMHWVRQAPGKGLEWMGGFDPEDGETIYAQKFQGRVTMTEDTSTDTAYMELSSLRSEDTAVYYCATSTIFAPGGWFDPWGQGTLVTVSS
VL: B8 VL with S97T, T98H
B16: antibody 317 (antibody, V domains shown)
VH: QVQLVQSGAEVKKPGASVKVSCKVSGYTLTELSMHWVRQAPGKGLEWMGGFDPEDGETIYAQKFQGRVTMTEDTSTDTAYMELSSLRSEDTAVYYCASSPAAAGTSQYYYYYGMDVWGQGTTVTVSS
VL: not shown

The target in one assay is SARS-CoV spike protein (full-length trimeric, on beads) (SARS-CoV, UniProt P59594 14-1190).
With B1, the “bead binding signal, fold over isotype control” value (“bead binding signal, fold” for short) amounted to 1.11 fold over isotype.

With B2, the “bead binding signal, fold” value was determined as 1.15 fold over isotype.

For the molecule B3, the “bead binding signal, fold” value is 1.23 fold over isotype. For B4, the “bead binding signal, fold” value was found to be 1.31 fold over isotype.

For B5, the “bead binding signal, fold” value was 1.04 fold over isotype. Turning to B6, the “bead binding signal, fold” value is 1.03 fold over isotype. Consider B7, for which the “bead binding signal, fold” value was determined as 1.03 fold over isotype. For the molecule B8, the “bead binding signal, fold” value was found to be 1.07 fold over isotype.

For the molecule B9, the “bead binding signal, fold” value was determined as 1.03 fold over isotype. The same measure, in the same setting: in the case of B10 it was 1.2 fold over isotype; in that of B11, 1.21 fold over isotype; in that of B12, 1.04 fold over isotype.

The next assay concerns the target SARS-CoV-2 full length spike protein (wild type) (SARS-CoV-2, UniProt P0DTC2 14-1208).
On to B13, for which the “median fluorescence intensity fold over isotype” value was 1200 fold over isotype control. Still for that read-out and setting: in the case of B14 it was 442 fold over isotype control; in that of B15, 994 fold over isotype control. As for B16, the “median fluorescence intensity fold over isotype” value is 890 fold over isotype control.
